The source of these data is PMC6416349.

Common to all, as to assay: SPR; Biacore 3000, 25 °C; fungal protein immobilised on a CM5 chip by amine coupling (300 RU Eno1 and Mp65, 360 RU Als3); RgpA 10-100 nM injected at 20 µl/min; 10 mM HEPES, 150 mM NaCl, 0.005% surfactant, pH 7.4; global fit, 1:1 Langmuir model with baseline drift
A general note: SPR reads the build-up and loss of mass on a sensor chip optically.

Experiment [1] deals with C. albicans enolase 1 (Eno1) (C. albicans) (UniProt P30575).
Experiment [2] addresses C. albicans cell wall mannoprotein 65 (Mp65) (C. albicans) (UniProt Q59XX2).
For experiment [3], the target named is C. albicans agglutinin-like sequence protein 3 (Als3), isolated from the hyphal cell wall (C. albicans) (UniProt Q59L12).
Sequence of UniProt Q59L12 (Q59L12 18-1134): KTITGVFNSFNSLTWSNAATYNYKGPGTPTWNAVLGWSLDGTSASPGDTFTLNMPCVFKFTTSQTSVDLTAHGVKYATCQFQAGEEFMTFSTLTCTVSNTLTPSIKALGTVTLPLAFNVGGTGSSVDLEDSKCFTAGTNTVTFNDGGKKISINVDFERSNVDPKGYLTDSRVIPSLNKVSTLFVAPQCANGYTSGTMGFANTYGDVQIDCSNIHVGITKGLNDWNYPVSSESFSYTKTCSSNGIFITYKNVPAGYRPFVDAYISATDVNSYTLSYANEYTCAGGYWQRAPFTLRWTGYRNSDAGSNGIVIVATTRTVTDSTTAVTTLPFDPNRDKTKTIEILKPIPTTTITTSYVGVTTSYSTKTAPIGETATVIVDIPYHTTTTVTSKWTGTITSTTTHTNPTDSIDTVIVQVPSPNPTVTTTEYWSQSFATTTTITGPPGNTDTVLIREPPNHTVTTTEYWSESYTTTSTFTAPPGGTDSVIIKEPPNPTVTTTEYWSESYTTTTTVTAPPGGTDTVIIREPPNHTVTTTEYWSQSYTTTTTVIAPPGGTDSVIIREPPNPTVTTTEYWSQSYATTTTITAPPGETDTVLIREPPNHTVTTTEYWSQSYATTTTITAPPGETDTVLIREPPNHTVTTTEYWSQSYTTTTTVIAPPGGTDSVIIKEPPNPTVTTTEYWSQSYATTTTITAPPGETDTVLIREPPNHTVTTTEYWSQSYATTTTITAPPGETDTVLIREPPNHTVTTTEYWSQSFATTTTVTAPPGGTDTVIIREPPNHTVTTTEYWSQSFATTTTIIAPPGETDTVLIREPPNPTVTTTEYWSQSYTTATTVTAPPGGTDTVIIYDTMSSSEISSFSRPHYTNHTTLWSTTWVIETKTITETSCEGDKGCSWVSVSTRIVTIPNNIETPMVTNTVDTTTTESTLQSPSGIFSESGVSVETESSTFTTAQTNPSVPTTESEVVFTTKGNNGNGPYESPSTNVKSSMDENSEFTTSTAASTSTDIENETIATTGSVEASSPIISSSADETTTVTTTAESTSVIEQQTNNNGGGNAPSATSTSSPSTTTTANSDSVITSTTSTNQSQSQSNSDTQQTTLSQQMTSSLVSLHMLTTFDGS

Sequence of UniProt Q59XX2 (Q59XX2 33-378): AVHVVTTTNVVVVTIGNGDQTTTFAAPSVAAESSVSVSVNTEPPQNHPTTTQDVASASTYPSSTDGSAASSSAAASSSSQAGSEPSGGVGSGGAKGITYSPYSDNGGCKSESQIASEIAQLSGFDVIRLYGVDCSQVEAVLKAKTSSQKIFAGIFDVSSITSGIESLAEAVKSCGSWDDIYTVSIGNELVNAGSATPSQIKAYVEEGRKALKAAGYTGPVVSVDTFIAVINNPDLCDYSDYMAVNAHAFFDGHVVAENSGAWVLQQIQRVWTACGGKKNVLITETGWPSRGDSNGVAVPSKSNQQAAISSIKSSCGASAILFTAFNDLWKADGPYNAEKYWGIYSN
Sequence of UniProt P30575 (P30575 whole entry): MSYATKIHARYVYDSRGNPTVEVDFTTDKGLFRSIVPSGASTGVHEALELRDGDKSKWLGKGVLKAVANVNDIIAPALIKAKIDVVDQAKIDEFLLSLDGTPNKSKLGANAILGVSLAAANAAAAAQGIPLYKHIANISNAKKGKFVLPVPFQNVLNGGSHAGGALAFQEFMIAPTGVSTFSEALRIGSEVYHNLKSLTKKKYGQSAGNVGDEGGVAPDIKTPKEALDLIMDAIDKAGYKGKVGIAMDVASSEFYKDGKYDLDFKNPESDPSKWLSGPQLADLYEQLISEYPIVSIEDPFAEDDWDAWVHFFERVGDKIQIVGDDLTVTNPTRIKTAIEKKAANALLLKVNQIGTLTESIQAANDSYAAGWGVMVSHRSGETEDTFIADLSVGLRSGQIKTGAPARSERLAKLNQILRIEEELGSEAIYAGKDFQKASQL

For orientation: Kd means the constant that tells how readily two partners part at equilibrium. A higher Kd goes with a looser complex. For “P. gingivalis gingipain RgpA (HRgpA) (from UniProt P28784 228-991) (enzyme)”, the Kd in experiment [1] stood at 2.97 nM; in experiment [2], 9.44 nM; in experiment [3], 9.96 nM.
